{"source": "paper PMC6499816", "about": "(2019)", "binders": {"B1": {"name": "FYCO1 WT LIR peptide (peptide)", "chain": "TDYRPPDDAVFDIITDEELCQIQE", "modifications": "24-mer limits inferred: 10 residues on each side of the core FDII (1280-1283), as in the arrays; exact peptide is in Supplementary Table 2. N- or C-terminal biotin if used in BLI, cellulose-bound if in the array"}, "B2": {"name": "LC3C (recombinant, BLI) (natural protein)", "chain": "MPPPQKIPSVRPFKQRKSLAIRQEEVAGIRAKFPNKIPVVVERYPRETFLPPLDKTKFLVPQELTMTQFLSIIRSRMVLRATEAFYLLVNNKSLVSMSATMAEIYRDYKDEDGFVYMTYASQETFG"}}, "assay_in_all_cases": "BLI", "key": {"LC3B (recombinant, BLI) [1]": {"biological_target": "T1, LC3B (recombinant, BLI) (human, UniProt Q9GZQ8 1-120)"}, "[2]": {"biological_target": "GABARAP (recombinant, BLI) (human, UniProt O95166 1-117)"}, "LC3A (recombinant, BLI) [3]": {"biological_target": "T2, LC3A (recombinant, BLI) (human, UniProt Q9H492 1-121)"}, "[4]": {"biological_target": "T3, GABARAP-L2 (recombinant, BLI) (human, UniProt P60520 1-117)", "T3 sequence (P60520 whole entry)": "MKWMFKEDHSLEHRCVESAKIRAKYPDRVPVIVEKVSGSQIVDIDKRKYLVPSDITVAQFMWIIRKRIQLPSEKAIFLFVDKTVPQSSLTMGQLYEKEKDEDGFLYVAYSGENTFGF"}, "LC3C (recombinant, BLI) [5]": {"biological_target": "B2"}, "LC3A (recombinant, BLI) [6]": {"biological_target": "T2, LC3A (recombinant, BLI)", "remark": "listed apart in the source"}, "[7]": {"biological_target": "T3, GABARAP-L2 (recombinant, BLI)", "remark": "listed apart in the source"}, "LC3C (recombinant, BLI) [8]": {"biological_target": "B2"}, "[9]": {"biological_target": "GABARAP K24Q/Y25H/Q59E/F60L (recombinant, BLI) (human, UniProt O95166 1-117, K24Q | Y25H | Q59E | F60L)"}, "[10]": {"biological_target": "LC3B Q26K/H27Y/E62Q (recombinant, BLI) (human, UniProt Q9GZQ8 1-120, Q26K | H27Y | E62Q)"}, "[11]": {"biological_target": "GABARAP F62K (recombinant, BLI) (human, UniProt O95166 1-117, F62K)"}, "[12]": {"biological_target": "GABARAP Q59E (recombinant, BLI) (human, UniProt O95166 1-117, Q59E)"}, "[13]": {"biological_target": "GABARAP R28K (recombinant, BLI) (human, UniProt O95166 1-117, R28K)"}, "[14]": {"biological_target": "GABARAP K24Q/Y25H/R28K (recombinant, BLI) (human, UniProt O95166 1-117, K24Q | Y25H | R28K)"}, "[15]": {"biological_target": "GABARAP L55V (recombinant, BLI) (human, UniProt O95166 1-117, L55V)"}, "[16]": {"biological_target": "GABARAP K24Q (recombinant, BLI) (human, UniProt O95166 1-117, K24Q)"}, "[17]": {"biological_target": "LC3B Q26K/H27Y/K30R (recombinant, BLI) (human, UniProt Q9GZQ8 1-120, Q26K | H27Y | K30R)"}, "[18]": {"biological_target": "GABARAP Y25H (recombinant, BLI) (human, UniProt O95166 1-117, Y25H)"}, "[19]": {"biological_target": "LC3B E62Q (recombinant, BLI) (human, UniProt Q9GZQ8 1-120, E62Q)"}, "[20]": {"biological_target": "GABARAP L63I (recombinant, BLI) (human, UniProt O95166 1-117, L63I)"}, "-L1 (recombinant, BLI)": {"biological_target": "-L1 (recombinant, BLI) (human, UniProt Q9H0R8 1-117)", "sequence (Q9H0R8 whole entry)": "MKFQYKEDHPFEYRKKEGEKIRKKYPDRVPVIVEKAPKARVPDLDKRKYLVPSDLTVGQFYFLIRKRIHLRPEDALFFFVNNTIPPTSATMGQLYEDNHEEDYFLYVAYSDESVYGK"}, "LC3B (recombinant, BLI) [21]": {"biological_target": "T1, LC3B (recombinant, BLI)", "remark": "listed apart in the source"}, "[22]": {"biological_target": "PCM1 LIR peptide mutated at P1962 (X7) (BLI) (UniProt Q15154, biotin (position not given))"}}, "note": "Read-outs that look alike come from different tables or passages of the source. Ends that are not written are not given here.", "data": [{"binder": "B1", "values": [{"measurement": "Kd", "setting": "LC3B (recombinant, BLI) [1]", "value": 1.1, "unit": "µM"}, {"measurement": "Kd", "setting": "[2]", "value": 1.7, "unit": "µM"}, {"measurement": "Kd", "setting": "LC3A (recombinant, BLI) [3]", "value": 0.78, "unit": "µM"}, {"measurement": "Kd", "setting": "[4]", "value": 17.4, "unit": "µM"}, {"measurement": "Kd", "setting": "LC3C (recombinant, BLI) [5]", "value": 3, "unit": "µM"}]}, {"binder": "NISQKSDEEDFDKVEDLPLKLTIY (also: biotin, position not given here)", "note": "[PCM1 V1956D LIR peptide]", "values": [{"measurement": "Kd", "setting": "[2]", "value": 7.7, "unit": "µM"}]}, {"binder": "SKDSSCDTDDFVMVPAQFPGDLVA (also: biotin, position not given here)", "note": "[ULK1 LIR peptide (biotinylated, BLI)]", "values": [{"measurement": "Kd", "setting": "LC3A (recombinant, BLI) [6]", "value": 5.9, "unit": "µM"}, {"measurement": "Kd", "setting": "[7]", "value": 0.53, "unit": "µM"}, {"measurement": "Kd", "setting": "LC3C (recombinant, BLI) [8]", "value": 2.5, "unit": "µM"}, {"measurement": "Kd", "setting": "[9]", "value": 5.6, "unit": "µM"}, {"measurement": "Kd", "setting": "[10]", "value": 5.6, "unit": "µM"}, {"measurement": "Kd", "setting": "[11]", "value": 0.15, "unit": "µM"}, {"measurement": "Kd", "setting": "[12]", "value": 0.36, "unit": "µM"}, {"measurement": "Kd", "setting": "[13]", "value": 0.39, "unit": "µM"}, {"measurement": "Kd", "setting": "[14]", "value": 3.2, "unit": "µM"}, {"measurement": "Kd", "setting": "[15]", "value": 0.13, "unit": "µM"}, {"measurement": "Kd", "setting": "[16]", "value": 0.42, "unit": "µM"}, {"measurement": "Kd", "setting": "[17]", "value": 2.9, "unit": "µM"}, {"measurement": "Kd", "setting": "[18]", "value": 0.26, "unit": "µM"}]}, {"binder": "NISQKSDEEDFVKVEDLPLKLTIY (also: biotin, position not given here)", "note": "[PCM1 LIR peptide (biotinylated, BLI)]", "values": [{"measurement": "Kd", "setting": "[19]", "value": 160, "unit": "µM"}, {"measurement": "Kd", "setting": "[11]", "value": 3.8, "unit": "µM"}, {"measurement": "Kd", "setting": "[13]", "value": 4.2, "unit": "µM"}, {"measurement": "Kd", "setting": "[20]", "value": 2, "unit": "µM"}]}, {"binder": "NISQKSDEEDFDIIEDLPLKLTIY (also: biotin, position not given here)", "note": "[PCM1 FDII LIR peptide (BLI)]", "values": [{"measurement": "Kd", "setting": "LC3B (recombinant, BLI) [1]", "value": 21.8, "unit": "µM"}, {"measurement": "Kd", "setting": "-L1 (recombinant, BLI)", "value": 0.91, "unit": "µM"}, {"measurement": "Kd", "setting": "[2]", "value": 1.4, "unit": "µM"}, {"measurement": "Kd", "setting": "LC3A (recombinant, BLI) [3]", "value": 4.6, "unit": "µM"}, {"measurement": "Kd", "setting": "[4]", "value": 17, "unit": "µM"}, {"measurement": "Kd", "setting": "LC3C (recombinant, BLI) [5]", "value": 2.4, "unit": "µM"}]}, {"binder": "GGSSGNTHDDFVMIDFKPAFSKDD (also: biotin, position not given here)", "note": "[ATG13 LIR peptide (biotinylated, BLI)]", "values": [{"measurement": "Kd", "setting": "LC3B (recombinant, BLI) [21]", "value": 9.6, "unit": "µM"}, {"measurement": "Kd", "setting": "[7]", "value": 3.1, "unit": "µM"}, {"measurement": "Kd", "setting": "LC3C (recombinant, BLI) [8]", "value": 0.48, "unit": "µM"}, {"measurement": "Kd", "setting": "[19]", "value": 4.5, "unit": "µM"}, {"measurement": "Kd", "setting": "[9]", "value": 3.3, "unit": "µM"}, {"measurement": "Kd", "setting": "[10]", "value": 3.1, "unit": "µM"}]}, {"binder": "NISQKSDEEDFVKIEDLPLKLTIY (also: biotin, position not given here)", "note": "[PCM1 V1958I LIR peptide]", "values": [{"measurement": "Kd", "setting": "[2]", "value": 1.5, "unit": "µM"}, {"measurement": "Kd", "setting": "[4]", "value": 7.6, "unit": "µM"}, {"measurement": "Kd", "setting": "LC3C (recombinant, BLI) [5]", "value": 6.9, "unit": "µM"}]}, {"binder": "NISQKSDEEDFVIVEDLPLKLTIY (also: biotin, position not given here)", "note": "[PCM1 K1957I LIR peptide (BLI)]", "values": [{"measurement": "Kd", "setting": "-L1 (recombinant, BLI)", "value": 0.13, "unit": "µM"}, {"measurement": "Kd", "setting": "[2]", "value": 0.17, "unit": "µM"}, {"measurement": "Kd", "setting": "LC3A (recombinant, BLI) [3]", "value": 3.9, "unit": "µM"}, {"measurement": "Kd", "setting": "[4]", "value": 1.19, "unit": "µM"}, {"measurement": "Kd", "setting": "LC3C (recombinant, BLI) [5]", "value": 0.38, "unit": "µM"}]}, {"binder": "TDYRPPDDAVFDIITDEELCQIQE", "values": [{"measurement": "Kd", "setting": "-L1 (recombinant, BLI)", "value": 0.9, "unit": "µM"}]}, {"binder": "NISQKSDEEDFVKVTDLPLKLTIY (also: biotin, position not given here)", "note": "[PCM1 E1959T LIR peptide (BLI)]", "values": [{"measurement": "Kd", "setting": "-L1 (recombinant, BLI)", "value": 2.9, "unit": "µM"}, {"measurement": "Kd", "setting": "[2]", "value": 3.1, "unit": "µM"}, {"measurement": "Kd", "setting": "[4]", "value": 19, "unit": "µM"}]}, {"binder": "PDSIDAHTFDFETIPHPNIEQTIH (also: biotin, position not given here)", "note": "[FIP200 LIR peptide (biotinylated, BLI)]", "values": [{"measurement": "Kd", "setting": "[13]", "value": 12.5, "unit": "µM"}, {"measurement": "Kd", "setting": "[14]", "value": 70.3, "unit": "µM"}, {"measurement": "Kd", "setting": "[15]", "value": 8.5, "unit": "µM"}, {"measurement": "Kd", "setting": "[20]", "value": 3.8, "unit": "µM"}]}, {"binder": "B2", "values": [{"measurement": "Kd", "setting": "[22]", "value": 10.8, "unit": "µM"}]}, {"binder": "SDNCSGGDDDWTHLSSKEVDPSTG (also: biotin, position not given here)", "note": "[p62 LIR peptide (biotinylated, BLI)]", "values": [{"measurement": "Kd", "setting": "LC3C (recombinant, BLI) [8]", "value": 2.7, "unit": "µM"}]}]}
